Results: article PMC3913725 (Cell, 2013)

Key:
Experiment in all cases: pull-down
GST-AP-1 core, wild type [1] = biological target: T1, GST-AP-1 core, wild type (murine | human, UniProt P22892 1-595; Q10567 1-584; Q96PC3 1-154; P35585 1-423)
GST-AP-1 core, wild type [2] = biological target: T1, GST-AP-1 core, wild type; remark: listed apart in the source
GST-AP-1 core, wild type [3] = biological target: T1, GST-AP-1 core, wild type; remark: listed apart in the source

T1 sequence (P22892 1-595, chain 1 of 4): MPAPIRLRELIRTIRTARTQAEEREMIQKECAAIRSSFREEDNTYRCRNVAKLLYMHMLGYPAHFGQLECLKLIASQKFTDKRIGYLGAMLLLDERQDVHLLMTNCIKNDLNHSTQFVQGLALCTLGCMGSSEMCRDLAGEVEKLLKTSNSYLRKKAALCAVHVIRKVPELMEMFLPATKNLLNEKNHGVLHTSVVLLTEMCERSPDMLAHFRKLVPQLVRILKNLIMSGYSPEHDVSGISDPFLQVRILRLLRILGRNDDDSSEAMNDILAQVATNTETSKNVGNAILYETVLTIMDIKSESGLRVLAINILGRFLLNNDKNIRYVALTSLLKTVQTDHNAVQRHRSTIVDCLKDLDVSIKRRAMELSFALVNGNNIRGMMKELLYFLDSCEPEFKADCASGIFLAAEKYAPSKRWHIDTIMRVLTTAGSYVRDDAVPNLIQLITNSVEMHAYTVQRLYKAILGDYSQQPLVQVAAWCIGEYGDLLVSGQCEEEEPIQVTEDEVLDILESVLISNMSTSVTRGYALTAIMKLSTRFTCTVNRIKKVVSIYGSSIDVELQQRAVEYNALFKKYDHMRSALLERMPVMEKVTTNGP
T1 sequence (Q10567 1-584, chain 2 of 4): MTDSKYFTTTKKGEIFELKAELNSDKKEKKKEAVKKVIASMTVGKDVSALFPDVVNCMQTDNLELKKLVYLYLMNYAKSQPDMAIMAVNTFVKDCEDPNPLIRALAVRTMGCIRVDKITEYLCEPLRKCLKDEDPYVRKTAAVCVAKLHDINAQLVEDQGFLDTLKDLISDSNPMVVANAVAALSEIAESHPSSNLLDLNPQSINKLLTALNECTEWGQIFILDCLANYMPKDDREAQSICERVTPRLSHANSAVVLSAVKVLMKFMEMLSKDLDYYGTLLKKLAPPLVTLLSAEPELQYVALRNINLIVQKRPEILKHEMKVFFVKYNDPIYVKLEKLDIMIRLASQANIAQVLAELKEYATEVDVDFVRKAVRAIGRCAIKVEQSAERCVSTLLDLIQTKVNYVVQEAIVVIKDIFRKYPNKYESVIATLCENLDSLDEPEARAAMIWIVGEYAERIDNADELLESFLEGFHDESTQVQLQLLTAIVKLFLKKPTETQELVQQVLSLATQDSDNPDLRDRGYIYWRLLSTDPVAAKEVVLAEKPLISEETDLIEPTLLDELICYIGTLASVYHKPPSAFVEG
T1 sequence (Q96PC3 whole entry, chain 3 of 4): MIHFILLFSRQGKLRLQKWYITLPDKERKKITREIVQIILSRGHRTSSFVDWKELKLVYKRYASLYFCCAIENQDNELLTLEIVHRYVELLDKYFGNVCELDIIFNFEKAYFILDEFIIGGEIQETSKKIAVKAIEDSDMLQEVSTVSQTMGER
T1 sequence (P35585 whole entry, chain 4 of 4): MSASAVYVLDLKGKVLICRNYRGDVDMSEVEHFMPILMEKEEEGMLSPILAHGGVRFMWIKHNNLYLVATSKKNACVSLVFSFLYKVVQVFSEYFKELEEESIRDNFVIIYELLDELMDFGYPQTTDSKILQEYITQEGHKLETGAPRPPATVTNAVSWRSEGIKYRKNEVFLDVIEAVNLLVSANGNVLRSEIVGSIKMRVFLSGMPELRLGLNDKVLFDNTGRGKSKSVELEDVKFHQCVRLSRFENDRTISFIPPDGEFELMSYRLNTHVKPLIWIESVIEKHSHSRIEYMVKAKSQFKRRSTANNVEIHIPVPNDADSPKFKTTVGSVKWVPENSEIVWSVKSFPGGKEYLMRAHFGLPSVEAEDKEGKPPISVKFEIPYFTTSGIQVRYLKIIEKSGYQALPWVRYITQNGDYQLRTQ

B1: His6-Arf1^Δ1-16 Q71L, GTP-loaded (domain or fragment)
chain: not shown
For B1, the Kd (GST-AP-1 core, wild type [1]) was 20 ± 0.6 µM and the “fold increase of Arf1 bound with 20 μM VAMP4 peptide, against no peptide” value (GST-AP-1 core, wild type [2]) was 4 fold.

B2: His-Arf1^Δ16-Q71L A136P/A137H (domain or fragment)
chain: not shown
B2: binds (GST-AP-1 core, wild type [3]).

B3: His-Arf1^Δ16-Q71L W172D (domain or fragment)
chain: not shown
B3: binds (GST-AP-1 core, wild type [3]).
